The values that follow come from paper PMC3326337.

Data set [1] concerns the target T1, His-CRP (cAMP receptor protein) (Escherichia coli, UniProt P0ACJ8 1-210). Description: EMSA.
Data set [2] addresses T1, His-CRP (cAMP receptor protein). Put plainly: DRaCALA.
The target is the same in data set [3]. Put plainly: DRaCALA. The source holds these as a separate data set.
For data set [4], the target named is Maltose binding protein (MBP) (UniProt P0AEX9 27-396). Description: DRaCALA.

Changes are numbered by the printed parent chain.

T1 sequence (P0ACJ8 whole entry): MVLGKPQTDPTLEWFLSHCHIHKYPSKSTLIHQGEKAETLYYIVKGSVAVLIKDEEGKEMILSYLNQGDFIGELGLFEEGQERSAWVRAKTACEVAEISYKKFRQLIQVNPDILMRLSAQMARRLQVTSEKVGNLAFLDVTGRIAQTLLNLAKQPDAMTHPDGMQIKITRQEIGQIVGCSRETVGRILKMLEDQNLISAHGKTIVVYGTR

B1: ICAP oligo (vl1427/vl1428) (dsDNA)
DNA 1: GCAACGCAATAAATGTGATCTAGATCACATTTTAGGCACCC
DNA 2: GGGGTGCCTAAAATGTGATCTAGATCACATTTATTGCGTTG
Turning to B1, the Kd in data set [1] amounted to 0.081 nM; in data set [2] it was 0.036 nM.

B2: ICAP 8,10:G-C (gd132/gd133) (dsDNA)
DNA 1: AGGAGGAATAAATCTCATCTAGATGAGATTTTAGAGGAGG
DNA 2: CCTCCTCTAAAATCTCATCTAGATGAGATTTATTCCTCCT
As to B2, the binding result in data set [3] is on record as “no binding”.

B3: ICAP 40-bp (gd126/gd127) (dsDNA)
DNA 1: B2 DNA 1 with C14G, C16G, G25C, G27C
DNA 2: B2 DNA 2 with C14G, C16G, G25C, G27C
For the molecule B3, the binding result is recorded as “binds” in data set [3] and “no binding” in data set [4].

B4: ICAP 10:G-C (gd130/gd131) (dsDNA)
DNA 1: B2 DNA 1 with C14G, G27C
DNA 2: B2 DNA 2 with C14G, G27C
With B4, the binding result in data set [3] is “no binding”.
